What was measured:
[1] = substrate: C[C@H](O)[C@H](O)[C@H]1CNc2nc(N)[nH]c(=O)c2N1; assay: purified protein, by the assay type; settings: other: rat liver enzyme; Km of substrate with the pterin as cofactor
[2] = substrate: C[C@H](O)[C@H](O)[C@H]1CNc2nc(N)[nH]c(=O)c2N1; assay: cells, lysate or membranes named; settings: other: Km of substrate with the pterin as cofactor

Row | Protein | Km [1] [µM] | Km [2] [µM]
1 | Phenylalanine hydroxylase (Rattus norvegicus) (protein) MAAVVLENGVLSRKLSDFGQETSYIEDNSNQNGAISLIFSLKEEVGALAKVLRLFEENDINLTHIESRPSRLNKDEYEFFTYLDKRTKPVLGSIIKSLRNDIGATVHELSRDKEKNTVPWFPRTIQELDRFANQILSYGAELDADHPGFKDPVYRARRKQFADIAYNYRHGQPIPRVEYTEEEKQTWGTVFRTLKALYKTHACYEHNHIFPLLEKYCGFREDNIPQLEDVSQFLQTCTGFRLRPVAGLLSSRDFLGGLAFRVFHCTQYIRHGSKPMYTPEPDICHELLGHVPLFSDRSFAQFSQEIGLASLGAPDEYIEKLATIYWFTVEFGLCKEGDSIKAYGAGLLSSFGELQYCLSDKPKLLPLELEKTACQEYSVTEFQPLYYVAESFSDAKEKVRTFAATIPRPFSVRYDPYTQRVEVLDNTQQLKILADSINSEVGILCNALQKIKS | 123 | –
2 | Tryptophan hydroxylase (Rattus norvegicus) (protein) MQPAMMMFSSKYWARRGLSLDSAVPEEHQILGGLTQNKATASKSEDKRSGKDTSESSKTAVVFSLKNEVGGLVRALRLFQEKHVNMLHIESRRSRRRSSEVEIFVDCECGKTEFNELIQLLKFQTTIVTLNPPDNIWTEEEELEDVPWFPRKISELDRCSHRVLMYGTELDADHPGFKDNVYRQRRKYFVDVAMGYKYGQPIPRVEYTEEETKTWGVVFRELSKLYPTHACREYLKNFPLLTKYCGYREDNVPQLEDVSMFLKERSGFTVRPVAGYLSPRDFLAGLAYRVFHCTQYVRHGSDPLYTPEPDTCHELLGHVPLLADPKFAQFSQEIGLASLGASDEDVQKLATCYFFTIEFGLCKQEGQLRAYGAGLLSSIGELKHALSDKACVKAFDPKTTCLQECLITTFQDAYFVSESFEEAKEKMRDFAKSITRPFSVYFNPYTQSIEILKDTRSIENVVQDLRSDLNTVCDALNKMNQYLGI | – | 15

From patent publication US4701455A, “Biopterin analogs” (Burroughs Wellcome Co., priority 1983, dated 1987)
